# B1: MA116-6 ScFv antibody (scFv)
# scFv: MAQVQLQESGPELVKPGASVKISCKASGYTFTDYHVHWVKGKPGQGLEWIGMTYPGFDDTNYSETFKGKATLTVDTSSNTVYMQLSSLTSEDTAVYFCARGVGLDYWGQGTTVTVSSGGGGSGGGGSGGGGSDSSSLVSKFVSTSIGDRIRITCKASQDVDTAVGWYQQRPGQSPKLLIFWSSTRHTGVPDRFTGSGSGTDFTLTISNVQSEDLADYFCHQYSSYPFTFGSGTKLEIKRAAAGAPVPYPDPLEPRAA
# B2: A116 ScFv antibody (recombinant single chain variable fragment cloned from hybridoma 1A4A1) (scFv)
# scFv: MAQVQLQESGPELVKPGASVKISCKASGYTFTDYHVHWVKGKPGQGLEWIGMTYPGFDNTNYSETFKGKATLTVDTFSTTVYMQLSSLTSEDTVVYFCARGVGLDYWGQGTTVTVSSGGGGSGGGGSGGGGSDSSSLVSKFVSTSIGDRIRITCKASQDVDTAVGWYQQRPGQSPKLLIFWSSTRHTGVPDRFTGSGSGTDFTLTISNVQSEDLADYFCHQYSSHPFTFGSGTKLEIKRAAAGAPVPYPDPLEPRAA
# B3: MA116-15 ScFv antibody (mutagenized, repaired A116) (scFv)
# scFv: MAQVQLQESGPELVKPGASVKISCKASGYTFTDYHVHWVKGKPGQGLEWIGMTYPGFDNTNYSETFKGKATLTVDTSSNTVYMQLSSLTSEDTAVYFCARGVGLDYWGQGTTVTVSSGGGGSGGGGSGGGGSDIELTQSPNSLSTSIGDRIRITCKASQDVDTAVGWYQQRPGQSPKLLIFWSSTRHTGVPDRFTGSGSGTDFTLTISNVQSEDLADYFCHQYSSYPFTFGSGTKLEIKRAAAGAPVPYPDPLEPRAA
# B4: MA116-4 ScFv antibody (scFv)
# scFv: MAQVQLQESGPELVKPGASVKISCKASGYTFTDYHVHWVKGKPGQGLEWIGMTYPGFDNTNYSETFKGKATLTVDTSSNTVYMQLSSLTSEDTAVYFCARGVGLDYWGQGTTVTVSSGGGGSGGGGSGGGGSASSSLSLSNSLSTSIGDRIRITCKASQDVDTAVGWYQQRPGQSPKLLIFWSSTRHTGVPDRFTGSGSGTDFTLTISNVQSDDLADYFCHQYSSYPFTFGSGTKLEIKRAAAGAPVPYPDPLEPRAA
# Tests used:
# [1] = molecular target: Inactivated Venezuelan equine encephalitis (VEE) whole virus antigen, strain TC-83 (Venezuelan equine encephalitis virus, strain TC-83) (UniProt P05674); assay: ELISA, HB2151 whole cell lysate, wells with and without VEE whole virus antigen
# [2] = molecular target: Inactivated Venezuelan equine encephalitis (VEE) whole virus antigen, strain TC-83 (Venezuelan equine encephalitis virus, strain TC-83) (UniProt P05674)
# [3] = molecular target: Inactivated Venezuelan equine encephalitis (VEE) whole virus antigen, strain TC-83 (Venezuelan equine encephalitis virus, strain TC-83) (UniProt P05674); remark: listed apart in the source
# [4] = molecular target: Inactivated Venezuelan equine encephalitis (VEE) whole virus antigen, strain TC-83 (Venezuelan equine encephalitis virus, strain TC-83) (UniProt P05674); assay: ELISA, […], in triplicate, […]
# [5] = molecular target: Inactivated Venezuelan equine encephalitis (VEE) whole virus antigen, strain TC-83 (Venezuelan equine encephalitis virus, strain TC-83) (UniProt P05674); assay: ELISA of whole cell lysates on VEE antigen (FIG. 10)
# Chain of UniProt P05674 (P05674 335-757 limits assumed): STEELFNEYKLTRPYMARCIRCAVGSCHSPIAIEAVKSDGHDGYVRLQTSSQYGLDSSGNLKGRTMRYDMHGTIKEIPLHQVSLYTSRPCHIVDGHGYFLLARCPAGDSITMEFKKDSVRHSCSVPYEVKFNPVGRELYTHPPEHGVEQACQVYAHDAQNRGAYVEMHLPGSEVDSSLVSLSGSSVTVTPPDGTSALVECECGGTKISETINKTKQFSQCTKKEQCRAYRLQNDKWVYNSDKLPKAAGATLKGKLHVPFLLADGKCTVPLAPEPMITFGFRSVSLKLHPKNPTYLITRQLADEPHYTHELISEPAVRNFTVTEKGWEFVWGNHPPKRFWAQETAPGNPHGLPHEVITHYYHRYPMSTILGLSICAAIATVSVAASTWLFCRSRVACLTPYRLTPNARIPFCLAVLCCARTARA
Binder,"fold retention, with VEE antigen over without [1] [fold]","fold absorbance, wells with VEE antigen over wells without [2] [fold]",fold absorbance over the HB2151 negative control lysate [3] [fold],fold ELISA reactivity against the original A116 clone [4] [fold],fold ELISA reactivity against the parental A116 clone [5] [fold]
B1,> 2.5,–,–,–,–
B2,–,> 2,4,–,–
B3,> 2.5,–,–,4,> 4
B4,> 2.5,–,–,–,–

# — US20030100060A1
